Measurements reported in paper PMC3187746.

Experiments:
[1] = target: in vitro translated, radiolabeled pUL77 (wild type, from pcDNA-UL77) (human cytomegalovirus (HCMV)) (UniProt P16726); experiment: cross-linking; in vitro translated, radiolabeled protein in PBS, 0.01% glutaraldehyde, 8% SDS-PAGE, autoradiography
[2] = target: pUL77 (Human cytomegalovirus (cosmid pCM1075; strain not stated)) (UniProt P16726); experiment: pull-down; conditions: scale: binding efficiency
[3] = target: purified recombinant pUL77 (rpUL77) (human cytomegalovirus (HCMV)) (UniProt P16726); experiment: cross-linking

| Substance | binding signal [2] | further results |
| --- | --- | --- |
| in vitro translated, radiolabeled pUL77 (wild type, from pcDNA-UL77) (from UniProt P16726 1-642) (natural protein) |  | stoichiometry N [1]: 2 |
| bio-250 bp | 0.5 |  |
| bio-500 bp | 2.2 |  |
| purified recombinant pUL77 (rpUL77) (from UniProt P16726 1-642) (natural protein) |  | stoichiometry N [3]: 2 |
| bio-1000 bp | 4.9 |  |
